Experimental data from publication PMC10397247.

Legend:
4H3134-AA = molecular target: T1, 4H3134-AA; assay: two-hybrid library CCmax; conditions: mean of both orientations;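 also: natural log of median RNA to DNA barcode read ratio; higher means stronger binding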
T1 chain: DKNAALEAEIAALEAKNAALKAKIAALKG

4H3625-AA = molecular target: T2, 4H3625-AA; assay: two-hybrid library CCmax; conditions: mean of both orientations;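 also: natural log of median RNA to DNA barcode read ratio; higher means stronger binding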
T2 chain: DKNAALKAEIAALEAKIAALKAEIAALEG

4H87-AA = molecular target: T3, 4H87-AA; assay: two-hybrid library CCmax; conditions: mean of both orientations;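 also: natural log of median RNA to DNA barcode read ratio; higher means stronger binding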
T3 chain: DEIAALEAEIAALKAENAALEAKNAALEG

4H816-AA = molecular target: T4, 4H816-AA; assay: two-hybrid library CCmax; conditions: mean of both orientations;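 also: natural log of median RNA to DNA barcode read ratio; higher means stronger binding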
T4 chain: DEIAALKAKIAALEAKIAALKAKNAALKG

4H278-AA = molecular target: T5, 4H278-AA; assay: two-hybrid library CCmax;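 also: natural log of median RNA to DNA barcode read ratio; higher means stronger binding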
T5 chain: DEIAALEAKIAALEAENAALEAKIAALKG

4H3409-AA = molecular target: T6, 4H3409-AA; assay: two-hybrid library CCmax; conditions: mean of both orientations;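 also: natural log of median RNA to DNA barcode read ratio; higher means stronger binding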
T6 chain: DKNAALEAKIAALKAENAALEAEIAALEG

4H3940-AA = molecular target: T7, 4H3940-AA; assay: two-hybrid library CCmax; conditions: mean of both orientations
T7 chain: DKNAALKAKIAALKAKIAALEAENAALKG

4H390-AA = molecular target: T8, 4H390-AA; assay: two-hybrid library CCmax; conditions: mean of both orientations
T8 chain: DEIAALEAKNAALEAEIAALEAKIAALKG

4H510-AA = molecular target: T9, 4H510-AA; assay: two-hybrid library CCmax; conditions: mean of both orientations
T9 chain: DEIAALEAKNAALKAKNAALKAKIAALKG

4H2985-AA = molecular target: T10, 4H2985-AA; assay: two-hybrid library CCmax; conditions: mean of both orientations
T10 chain: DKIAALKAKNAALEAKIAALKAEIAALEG

4H775-AA = molecular target: T11, 4H775-AA; assay: two-hybrid library CCmax
T11 chain: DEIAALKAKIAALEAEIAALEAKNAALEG

4H2873-AA = molecular target: T12, 4H2873-AA; assay: two-hybrid library CCmax; conditions: mean of both orientations
T12 chain: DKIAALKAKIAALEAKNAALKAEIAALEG

4H3926-bN = molecular target: T13, 4H3926-bN; assay: two-hybrid library CCNG1
T13 chain: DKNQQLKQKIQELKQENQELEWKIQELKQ

4H3628-bN = molecular target: T14, 4H3628-bN; assay: two-hybrid library CCNG1
T14 chain: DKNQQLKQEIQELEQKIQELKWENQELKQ

4H3613-bN = molecular target: T15, 4H3613-bN; assay: two-hybrid library CCNG1
T15 chain: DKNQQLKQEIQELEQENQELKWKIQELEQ

4H626-bN = molecular target: T16, 4H626-bN; assay: two-hybrid library CCNG1
T16 chain: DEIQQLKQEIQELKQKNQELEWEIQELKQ

4H3497-bN = molecular target: T17, 4H3497-bN; assay: two-hybrid library CCNG1
T17 chain: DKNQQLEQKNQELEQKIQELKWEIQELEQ

4H591-bN = molecular target: T18, 4H591-bN; assay: two-hybrid library CCNG1
T18 chain: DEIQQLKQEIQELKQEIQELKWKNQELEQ

4H906-bN = molecular target: T19, 4H906-bN; assay: two-hybrid library CCNG1
T19 chain: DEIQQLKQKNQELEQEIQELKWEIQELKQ

4H850-bN = molecular target: T20, 4H850-bN; assay: two-hybrid library CCNG1
T20 chain: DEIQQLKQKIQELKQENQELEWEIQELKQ

4H3974-bN = molecular target: T21, 4H3974-bN; assay: two-hybrid library CCNG1
T21 chain: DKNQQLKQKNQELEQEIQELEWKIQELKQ

4H570-bN = molecular target: T22, 4H570-bN; assay: two-hybrid library CCNG1
T22 chain: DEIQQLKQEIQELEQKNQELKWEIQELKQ

4H953-bH = molecular target: T23, 4H953-bH; assay: two-hybrid library CCNG1
T23 chain: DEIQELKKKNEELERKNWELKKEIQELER

4H619-bN = molecular target: T24, 4H619-bN; assay: two-hybrid library CCNG1
T24 chain: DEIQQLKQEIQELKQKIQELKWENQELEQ

4H3817-bN = molecular target: T25, 4H3817-bN; assay: two-hybrid library CCNG1
T25 chain: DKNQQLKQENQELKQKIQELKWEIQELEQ

4H584-bN = molecular target: T26, 4H584-bN; assay: two-hybrid library CCNG1
T26 chain: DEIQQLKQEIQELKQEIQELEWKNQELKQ

4H3638-bN = molecular target: T27, 4H3638-bN; assay: two-hybrid library CCNG1
T27 chain: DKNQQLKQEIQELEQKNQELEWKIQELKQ

4H591-bA = molecular target: T28, 4H591-bA; assay: two-hybrid library CCNG1
T28 chain: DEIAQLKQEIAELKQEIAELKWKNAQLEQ

4H3858-bA = molecular target: T29, 4H3858-bA; assay: two-hybrid library CCNG1
T29 chain: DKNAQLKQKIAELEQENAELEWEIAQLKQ

4H626-bA = molecular target: T30, 4H626-bA; assay: two-hybrid library CCNG1
T30 chain: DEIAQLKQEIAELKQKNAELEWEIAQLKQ

4H3974-bA = molecular target: T31, 4H3974-bA; assay: two-hybrid library CCNG1
T31 chain: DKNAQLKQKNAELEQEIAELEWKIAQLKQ

4H3926-bA = molecular target: T32, 4H3926-bA; assay: two-hybrid library CCNG1
T32 chain: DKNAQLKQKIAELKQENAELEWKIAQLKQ

4H570-bA = molecular target: T33, 4H570-bA; assay: two-hybrid library CCNG1
T33 chain: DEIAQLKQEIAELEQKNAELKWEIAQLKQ

4H906-bA = molecular target: T34, 4H906-bA; assay: two-hybrid library CCNG1
T34 chain: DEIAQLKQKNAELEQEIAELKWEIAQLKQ

4H3613-bA = molecular target: T35, 4H3613-bA; assay: two-hybrid library CCNG1
T35 chain: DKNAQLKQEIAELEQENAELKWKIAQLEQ

4H3628-bA = molecular target: T36, 4H3628-bA; assay: two-hybrid library CCNG1
T36 chain: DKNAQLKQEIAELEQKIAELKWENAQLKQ

4H3817-bA = molecular target: T37, 4H3817-bA; assay: two-hybrid library CCNG1
T37 chain: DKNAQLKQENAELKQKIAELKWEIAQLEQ

4H850-bA = molecular target: T38, 4H850-bA; assay: two-hybrid library CCNG1
T38 chain: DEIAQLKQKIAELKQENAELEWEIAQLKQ

4H619-bA = molecular target: T39, 4H619-bA; assay: two-hybrid library CCNG1
T39 chain: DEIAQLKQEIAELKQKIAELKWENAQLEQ

4H3638-bA = molecular target: T40, 4H3638-bA; assay: two-hybrid library CCNG1
T40 chain: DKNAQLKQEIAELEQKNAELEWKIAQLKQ

4H584-bA = molecular target: T41, 4H584-bA; assay: two-hybrid library CCNG1
T41 chain: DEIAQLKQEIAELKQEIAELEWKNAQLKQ

4H3631-bA = molecular target: T42, 4H3631-bA; assay: two-hybrid library CCNG1
T42 chain: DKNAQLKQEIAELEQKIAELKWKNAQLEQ

P9 = molecular target: T43, P9; assay: two-hybrid library CC1; conditions: mean of both orientations
T43 chain: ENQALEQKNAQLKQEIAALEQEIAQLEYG

P8 = molecular target: T44, P8; assay: two-hybrid library CC1; conditions: mean of both orientations
T44 chain: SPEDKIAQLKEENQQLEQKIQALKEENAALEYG

P8mS = molecular target: T45, P8mS; assay: two-hybrid library CC1; conditions: mean of both orientations
T45 chain: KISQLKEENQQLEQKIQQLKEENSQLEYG

P6mS = molecular target: T46, P6mS; assay: two-hybrid library CC1; conditions: mean of both orientations
T46 chain: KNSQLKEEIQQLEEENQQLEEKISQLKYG

P6SC1 = molecular target: T47, P6SC1; assay: two-hybrid library CC1
T47 chain: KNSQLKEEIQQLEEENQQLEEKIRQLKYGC

P7 = molecular target: T48, P7; assay: two-hybrid library CC1; conditions: mean of both orientations
T48 chain: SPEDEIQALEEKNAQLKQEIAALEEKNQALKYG

P7mS = molecular target: T49, P7mS; assay: two-hybrid library CC1; conditions: mean of both orientations
T49 chain: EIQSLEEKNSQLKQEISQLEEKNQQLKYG

P6SC2 = molecular target: T50, P6SC2; assay: two-hybrid library CC1; conditions: mean of both orientations
T50 chain: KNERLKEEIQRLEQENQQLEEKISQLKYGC

O7-AA = molecular target: T51, O7-AA; assay: two-hybrid library CCmax
T51 chain: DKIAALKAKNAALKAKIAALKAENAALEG

P9-AA = molecular target: T52, P9-AA; assay: two-hybrid library CCmax; conditions: mean of both orientations
T52 chain: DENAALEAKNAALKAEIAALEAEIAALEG

O8-AA = molecular target: T53, O8-AA; assay: two-hybrid library CCmax; conditions: mean of both orientations
T53 chain: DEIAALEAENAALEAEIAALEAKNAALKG

P10-AA = molecular target: T54, P10-AA; assay: two-hybrid library CCmax; conditions: mean of both orientations
T54 chain: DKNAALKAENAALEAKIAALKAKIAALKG

DEIAALEAKIAALEAENAALEAKIAALKG [4H278-AA]
interaction score (4H3134-AA): 1.9 | interaction score (4H3625-AA): 1.32 | interaction score (4H87-AA): -1.44 | interaction score (4H816-AA): 0.427 | interaction score (4H278-AA): 1.38 | interaction score (4H3409-AA): 0.702 | interaction score (4H3940-AA): 0.936 | interaction score (4H390-AA): 1.6 | interaction score (4H510-AA): 1.09 | interaction score (4H2985-AA): 1.94 | interaction score (4H775-AA): -1.16 | interaction score (4H2873-AA): 1.66

DKNQQLEQKNQELEQKIQELKWEIQELEQ [4H3497-bN]
interaction score (4H3926-bN): -1.9 | interaction score (4H3628-bN): -0.414 | interaction score (4H3613-bN): -1.36 | interaction score (4H626-bN): -2.23 | interaction score (4H3497-bN): -1.39 | interaction score (4H591-bN): -0.818 | interaction score (4H906-bN): -0.915

DKNQQLKQEIQELEQKNQELEWKIQELKQ [4H3638-bN]
interaction score (4H850-bN): 0.801 | interaction score (4H3974-bN): -0.469 | interaction score (4H570-bN): 0.408 | interaction score (4H953-bH): -2.56 | interaction score (4H619-bN): -1.26 | interaction score (4H3817-bN): -0.442 | interaction score (4H584-bN): 0.234 | interaction score (4H3638-bN): 0.732 | interaction score (4H906-bN): -0.17

DKNAQLKQEIAELEQENAELKWKIAQLEQ [4H3613-bA]
interaction score (4H591-bA): -0.523 | interaction score (4H3858-bA): -0.117 | interaction score (4H626-bA): -0.846 | interaction score (4H3974-bA): -0.83 | interaction score (4H3926-bA): 2.15 | interaction score (4H570-bA): -0.148 | interaction score (4H906-bA): -0.971 | interaction score (4H3613-bA): -0.128 | interaction score (4H3628-bA): -0.292 | interaction score (4H3817-bA): -0.898 | interaction score (4H850-bA): 0.586

DKNAQLKQEIAELEQKIAELKWKNAQLEQ [4H3631-bA]
interaction score (4H619-bA): -0.0328 | interaction score (4H3638-bA): -0.00348 | interaction score (4H584-bA): 0.0123 | interaction score (4H3631-bA): 0.816 | interaction score (4H3974-bA): 0.937 | interaction score (4H570-bA): -0.919 | interaction score (4H906-bA): -0.872 | interaction score (4H3817-bA): 0.452 | interaction score (4H850-bA): -0.369

KNSQLKEEIQQLEEENQQLEEKIRQLKYGC [P6SC1]
interaction score (P9): -1.54 | interaction score (P8): -2.12 | interaction score (P8mS): -2.55 | interaction score (P6mS): -2.87 | interaction score (P6SC1): -2.56 | interaction score (P7): -0.456 | interaction score (P7mS): -2.22 | interaction score (P6SC2): -2.43

DKNAQLKQENAELKQKIAELKWEIAQLEQ [4H3817-bA]
interaction score (4H619-bA): -1.25 | interaction score (4H584-bA): -1.24 | interaction score (4H3858-bA): -1.18 | interaction score (4H3974-bA): 1.27 | interaction score (4H570-bA): -1.2 | interaction score (4H906-bA): -0.916 | interaction score (4H3817-bA): -0.506 | interaction score (4H850-bA): -0.849

DKIAALKAKNAALKAKIAALKAENAALEG [O7-AA]
interaction score (O7-AA): -1.65 | interaction score (P9-AA): -1.37 | interaction score (O8-AA): 2.12 | interaction score (P10-AA): -1.18
